Where two headings read alike, the source gives them in different places.
T1: Substance P (SP) (UniProt P20366)
T1 sequence: RPKPQQFFGLM

T2: Substance P (SP) (UniProt P20366)
T2 chain: RPKPQQFFGLM

T3: Reverse-orientation substance P (rSP)
T3 chain: CMLGFFQQPKPR

T4: Substance P fragment 2-11
T4 chain: PKPQQFFGLM


Experiments:
Substance P (SP) [1] = molecular target: T1, Substance P (SP); settings: equilibrium dialysis rough estimate, 20 uM RNA, fraction bound 0.017
Substance P (SP) [2] = molecular target: T2, Substance P (SP); experiment: single-point equilibrium dialysis; settings: protein: synthetic; tags: free synthetic peptide, C-terminal amide, Sigma (3H-SP from NEN as tracer)
Description: (§1) Binding reactions consisted of 20 nM ^3H-SP (P_o) and either 0.2 µM RNA (a) or 1.0 µM RNA (b). ND=not determined.
(§2) Equilibrium dialysis. Equilibrium dialysis experiments were performed with a Spectra/Por® (Spectrum; Houston, Tex.) equilibrium dialyzer, Spectra/Por® (Spectrum; Houston, Tex.) microcell dialysis chambers (200-μl chamber volumes), and 12000–14000 MWCO dialysis membranes (Spectrum; Houston, Tex.). These membranes allow passage of SP but not 107-nt RNAs. Sample volumes were 200 μl on each side of the membrane (i.e., 200 μl per chamber). All experiments were at room temperature in 1X SP binding buffer. RNAs (unlabeled) were denatured prior to re-equilibration in binding buffer as described above for Experiment B. For binding curves (FIG. 4), RNA concentrations between 50 nM and 20 μM were utilized. […] For binding competition experiments (FIGS. 6 and 7), equal concentrations of the competing peptide were applied to each side of the membrane at the start of dialysis. The dialysis cells were rotated at 10 rpm to shorten the time required to reach equilibrium. […] Following equilibration, samples were withdrawn from the dialysis chambers, added to scintillation fluid, and counted.

Substance P (SP) [3] = molecular target: T2, Substance P (SP); experiment: single-point equilibrium dialysis; exception to the >2 uM statement, exact value only in figure; settings: protein: synthetic; tags: free synthetic peptide, C-terminal amide, Sigma (3H-SP from NEN as tracer)
Description: as §1, §2

Substance P (SP) [4] = molecular target: T2, Substance P (SP); experiment: single-point equilibrium dialysis; stated for all class 2; settings: protein: synthetic; tags: free synthetic peptide, C-terminal amide, Sigma (3H-SP from NEN as tracer)
Description: as §1, §2

Substance P (SP) [5] = molecular target: T2, Substance P (SP); experiment: equilibrium dialysis, five-point curve; earlier estimate 14 uM; SP binding buffer, room temp; settings: protein: synthetic; tags: free synthetic peptide, C-terminal amide, Sigma (3H-SP from NEN as tracer)
Description: as §2

Substance P (SP) [6] = molecular target: T2, Substance P (SP); experiment: equilibrium dialysis, five-point curve; single-point screen gave 170 nM; 10 mM HEPES pH 7.0, 150 mM NaCl, 5 mM KCl, 5 mM CaCl2, room temp; settings: protein: synthetic; tags: free synthetic peptide, C-terminal amide, Sigma (3H-SP from NEN as tracer)
Description: as §2

[7] = molecular target: T3, Reverse-orientation substance P (rSP); experiment: competition; poor competitor of 3H-SP up to 100 uM; 1.6 uM RNA, 1.6 uM SP; settings: protein: synthetic; tags: synthetic peptide
Description: as §2, with “These” for “Equilibrium dialysis. Equilibrium dialysis experiments were performed with a Spectra/Por® (Spectrum; Houston, Tex.) equilibrium dialyzer, Spectra/Por® (Spectrum; Houston, Tex.) microcell dialysis chambers (200-μl chamber volumes), and 12000–14000 MWCO dialysis membranes (Spectrum; Houston, Tex.). These”

[8] = molecular target: T4, Substance P fragment 2-11; experiment: competition; unable to compete at 32 uM (20-fold excess over SP); settings: protein: synthetic; tags: synthetic peptide, Sigma
Description: as §2

Row | Molecule | Kd (Substance P (SP) [4]) [µM] | further results
1 | GGGAGCUCAGAAUAAACGCUCAANNNNNNNNNNNNNNNNNNNNNNNNNNNNNNNNNNNNNNNNNNNNNNNNNNNNNNNNNNNNUUCGACAUGAGGCCCGGAUCCGGC [Unselected random 60N RNA pool] |  | Kd (Substance P (SP) [1]): 1200 µM
2 | Ligand B22 (class 3) (ssRNA) RNA: GGGAGCUCAGAAUAAACGCUCAAAAGGUAAGAAACAGGACACGCACUUAAACAGACGAGUUAACCAUACCUAGAUCGCGGAAUUCGACAUGAGGCCCGGAUCCGGC |  | Kd (Substance P (SP) [2]): > 2 µM
3 | Ligand B32 (class 3) (ssRNA) RNA: GGGAGCUCAGAAUAAACGCUCAAAAAGGCACUGACCACCCUCAGGAAGAAUAACCGCGGUCACCCGCAUCCGAGUCUAUCAAUUUCGACAUGAGGCCCGGAUCCGGC |  | Kd (Substance P (SP) [3]): < 2 µM
4 | Experiment B class 2 ligand (SEQ 51) (ssRNA) RNA: GGGAGCUCAGAAUAAACGCUCAAGAACAGGACACCUGGUUCUCAGGACGAGUUUACUAGGGCGGCAAAAAGGGCUCUCGUGGGUUCGACAUGAGGCCCGGAUCCGGC | > 2 | 
5 | Ligand B23 (class 3) (ssRNA) RNA: GGGAGCUCAGAAUAAACGCUCAAGCUCAAGGCAGAAACAGGACACACCAAGACGAGUUAACCAGCCCAGCUUGACCAUACAUUCGACAUGAGGCCCGGAUCCGGC |  | Kd (Substance P (SP) [2]): > 2 µM
6 | Experiment B class 2 ligand (SEQ 52) (ssRNA) RNA: GGGAGCUCAGAAUAAACGCUCAAAAACAGGACACCAAUUUUAUUGGACGAGUUUACUAGGGCGGUAUUAUGGGCUCGCGAGGAUUCGACAUGAGGCCCGGAUCCGGC | > 2 | 
7 | Ligand A13 (ssRNA) RNA: GGGAGCUCAGAAUAAACGCUCAAGGGCAACGCGGGCACCCCGACAGGUGCAAAAACGCACCGACGCCCGGCCGAAGAAGGGGAUUCGACAUGAGGCCCGGAUCCGGC |  | Kd (Substance P (SP) [5]): 5.8 µM
8 | Ligand B28 (ssRNA) RNA: GGGAGCUCAGAAUAAACGCUCAACUUCCAAGGCAGUGGAAACCCUAAGGUCAAUAAUGACCAAUGACGCCGCUCCGGUUCAACCUUCGACAUGAGGCCCGGAUCCGGC |  | Kd (Substance P (SP) [6]): 0.19 µM; binding result [7]: no binding; binding result [8]: no binding
9 | Experiment B class 2 ligand (SEQ 53) (ssRNA) RNA: GGGAGCUCAGAAUAAACGCUCAAAAACAGGACACCAUGAAAAUGGACGAGUUCACUAGAGCGUUGAGCUGUGCGCCCGUGGAUUCGACAUGAGGCCCGGAUCCGGC | > 2 | 
10 | Experiment B class 2 ligand (SEQ 54) (ssRNA) RNA: GGGAGCUCAGAAUAAACGCUCAAAAACAGGACACCAAGAUUAUUGGACGAGUUUACUAGGGCGAUUAAUGGGCUCGCGAUGAUUCGACAUGAGGCCCGGAUCCGGC | > 2 | 
11 | Experiment B class 2 ligand (SEQ 49) (ssRNA) RNA: GGGAGCUCAGAAUAAACGCUCAAUAACAGGACACCAUGAUUAAUGGACGAGUUCACUAGGGCGGUUAAAAGAGCUCUCGAGGAUUCGACAUGAGGCCCGGAUCCGGC | > 2 | 
12 | Experiment B class 2 ligand (SEQ 48) (ssRNA) RNA: GGGAGCUCAGAAUAAACGCUCAAAAAACAGGACACCAUGAUAAAUGGACGAGUUCACUGGAGCGUCUAAAAGGGCACCCUUGGAUUCGACAUGAGGCCCGGAUCCGGC | > 2 | 
13 | Experiment B class 2 ligand (SEQ 55) (ssRNA) RNA: GGGAGCUCAGAAUAAACGCUCAAAACAGGACACCUUGAAUAAAGGACGAGUUUACUGUGCGUUUAGUAGAGAACCCGGGAUUCGACAUGAGGCCCGGAUCCGGC | > 2 | 
14 | Experiment B class 2 ligand (SEQ 50) (ssRNA) RNA: GGGAGCUCAGAAUAAACGCUCAAGAACAGGACACCAAGAUAAUUGGACGAGUUUACUAGGGCGGCUAUGCUGGCUCUCGAGGAUUCGACAUGAGGCCCGGAUCCGGC | > 2 | 
